One molecule from publication doi:10.1101/2024.02.22.581535 (2024) can be followed below.

Targets include FIKK13_6; FIKK13_4_S7A; FIKK13_4_S7A_Y10A; FIKK13_4_Y10A; FIKK13_1.
Test in all cases: SPR

B1: Bio-His-FIKK13 (enzyme)
chain: MKKKENTQKLLNFVYYKIYLTFIVGLLYIFLLNILINHGGSKNDVRFTNIRCVRIFSENIKNINEISKKIYLYNIKNEKDDIICRDSLDNINEINNKINYTSVKGEDIIILKEGKYKNGCSDINFLDRKDVNKNDDQSFRNYHKTNNNKDENVNMKSYVYNWELGQKSLIKMLDYADNFYFNGVKYSDWKLTSMRRFNLNNNVLKDHKTYKSIINSKKGNDMKKVKLFIKKIPIDIWVEQFNLMKKYEGEYLIDKENYVMEAVSLAFLNEYYPGITPKFYKILYESDKNNMNEKNCKKYKFQDLNELNDILTKKLENNINGNIVLISEFFGENVFDYIKRKKNTLFVVSDISNEDKKKILYNSLNLLMRLHNAGLTHLDLSPDNMLISPKNYEMRLCDLSQSTPIYTNKLRHKEKLNSIKPFESFEPCIGKIEYIPPECWKIVWKYKMNNIKNPIEYLKNISNQEERKKYYYDVSCADKYMLGIFFIWMWNNGFIWKCSDPIQDKIFEIFMKSNMDLNKFIMTKSWPHELNNLINKLLHMEHRKTVKLSDLSRHPWWSSKN
On to B1, for which the Kd is > 10 µM with FIKK13_6; 3.4 µM with FIKK13_4_S7A; > 10 µM in the assay with FIKK13_4_S7A_Y10A; > 10 µM in the assay with FIKK13_4_Y10A; > 10 µM in the assay with FIKK13_1.
